B1: DnaJ homolog subfamily C member 5, residues 16 to 77; numbered along this chain, Q9H3Z4 (parent)
chain: LYHVLGLDKNATSDDIKKSYRKLALKYHPDKNPDNPEAADKFKEINNAHAILTDATKRNIYD

Variants of: B1
Experiment: abundance fitness (aPCA) (normalised: wild type 0, dead -1); higher = more abundant; growth selection in yeast, the domain comes from the species named
Settings: Homo sapiens

Abundance fitness, by site and new letter:
H3: S 0.147, T -0.017, W -0.301, Y -0.489
V4: A 0.034, C -0.056, D -0.458, E -0.374, F -0.362, G -0.599, I -0.054, K -0.646, L -0.292, M -0.078, N -0.15, P -0.733, Q -0.546, R -0.765, S -0.259, T -0.209, W -0.687, Y -0.553
L5: E -0.14, G -0.713, H 0.038, K -0.444, M -0.32, N 0.123, P -0.221, Q 0.084, R -0.889, S -0.267, T -0.368, V -0.906, Y -0.606
G6: A -0.485, C -0.466, D -0.046, E -0.866, F -0.985, K -0.751, L -0.625, M -0.655, N 0.069, P -0.799, R -0.488, S -0.559, V -1.42, W -1.02, Y -0.671
L7: A -0.298, C -0.149, D -0.316, E -0.298, F -0.734, H -0.54, I -0.477, K -0.365, N -0.434, P -0.231, Q -0.309, R -0.608, S -0.345, T -0.721, V -0.103, W -0.949, Y -1.01
D8: A -0.258, C -0.497, F -0.533, G -0.459, H -0.42, I -0.807, K -0.516, M -0.355, N -0.277, P 0.108, Q -0.019, R -0.44, S -0.378, T -0.309, V -0.648, W -0.648, Y -0.421
K9: A 0.077, C -0.246, D -0.05, E 0.007, F -0.281, G -0.215, H -0.341, I -0.099, M -0.458, N -0.394, P -0.252, Q -0.25, R -0.116, S -0.125, T -0.27, V -0.004, W -0.499, Y -0.163
N10: A -0.293, D -0.343, E -0.343, F -0.371, H -0.493, I -0.741, L -0.342, P -0.818, Q -0.266, R -0.464, S -0.142, T -0.073, V -0.711, W -0.4, Y -0.796
A11: C -0.182, E -1.13, G -0.536, I -1.49, K -0.569, L -0.941, M -1.6, N -0.125, P -0.536, Q -1.25, R -0.846, S -0.578, T -0.553, V -0.661, W -1.24
T12: A -0.878, C -0.235, D -0.467, E -0.573, F -0.857, G -0.472, H -0.349, I -0.412, K -0.437, L -0.813, M -0.678, N -0.426, P -1.01, S -0.232, W -1.31, Y -1.07
S13: A -0.116, C -0.215, D 0.068, E -0.023, F -0.267, G -0.376, H -0.496, I 0.046, L -0.04, M 0.04, N 0.002, P -0.272, R -0.354, T 0.055, V -0.162, W -0.336, Y -0.188
D14: A -0.166, C -0.549
